Results on three proteins are retold here after paper PMC4174979 (DNA repair, 2014).

To fix the notation:
B1: BLM_(95–294) (domain or fragment, human, UniProt P54132 95-294, looked up)
chain: AGQETQRGGSKSLLPDFLQTPKEVVCTTQNTPTVKKSRDTALKKLEFSSSPDSLSTINDWDDMDDFDTSETSKSFVTPPQSHFVRVSTAQKSKKGKRNFFKAQLYTTNTVKTDLPPPSSESEQIDLTEEQKDDSEWLSSDVICIDDGPIAEVHINEDAQESDSLKTHLEDERDNSEKKKNLEEAELHSTEKVPCIEFDDD
B2: Sgs1_(157–257) (domain or fragment, S. cerevisiae, UniProt P35187 157-257, looked up)
chain: NKSVIDNSSIGKQLENDIKLEVIRLQGSLIMALKEQSKLLLQKCSIIESTSLSEDAKRLQLSRDIRPQLSNMSIRIDSLEKEIIKAKKDGMSKDQSKGRSQ
B3: Sgs1_(103–322) (domain or fragment, S. cerevisiae, UniProt P35187 103-322, looked up)
chain: ADVPMVDIPASTSVVSNPRTPNGSKTHNFNTFRPHMASSLVENDSSRNLGSRNNNKSVIDNSSIGKQLENDIKLEVIRLQGSLIMALKEQSKLLLQKCSIIESTSLSEDAKRLQLSRDIRPQLSNMSIRIDSLEKEIIKAKKDGMSKDQSKGRSQVSSQDDNIISSILPSPLEYNTSSRNSNLTSTTATTVTKALAITGAKQNITNNTGKNSNNDSNNDD

The stoichiometry N is the number of molecules, sites or subunits per partner or assembly.

The data set concerns the molecule itself. The data set can be described thus: SEC. (In general: Size exclusion chromatography separates by hydrodynamic size, large species first.)
Regarding B1, the “stoichiometry N” value stood at 6.

For the protein B2, the “stoichiometry N” value was 6. For B3 the value was 6.
